According to US20090214428A1:

Target: HeV G envelope glycoprotein (on effector cells expressing HeV F and G, or on infectious HeV) (Hendra virus) (UniProt O89343)
Assay: cell-based or functional assay

HeV G envelope glycoprotein (on effector cells expressing HeV F and G, or on infectious HeV) (Hendra virus), sequence (O89343 whole entry): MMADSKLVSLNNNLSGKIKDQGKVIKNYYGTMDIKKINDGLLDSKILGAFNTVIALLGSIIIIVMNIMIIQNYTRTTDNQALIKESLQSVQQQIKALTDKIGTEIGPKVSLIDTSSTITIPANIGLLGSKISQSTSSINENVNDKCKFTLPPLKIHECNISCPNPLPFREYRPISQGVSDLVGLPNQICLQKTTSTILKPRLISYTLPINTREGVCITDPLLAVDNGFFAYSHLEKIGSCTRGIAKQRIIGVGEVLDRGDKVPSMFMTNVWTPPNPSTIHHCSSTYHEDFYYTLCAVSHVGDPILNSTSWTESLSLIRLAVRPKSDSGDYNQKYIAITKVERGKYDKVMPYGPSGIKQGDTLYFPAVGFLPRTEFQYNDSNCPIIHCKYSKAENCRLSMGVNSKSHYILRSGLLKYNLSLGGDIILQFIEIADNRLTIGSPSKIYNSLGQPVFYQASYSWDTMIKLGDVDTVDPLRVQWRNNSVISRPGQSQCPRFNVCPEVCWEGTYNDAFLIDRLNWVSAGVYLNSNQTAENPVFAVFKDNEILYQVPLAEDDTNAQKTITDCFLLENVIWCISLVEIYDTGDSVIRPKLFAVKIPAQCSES

## Fab X5
  syncytia per complete photograph view, control antibody (17 without antibody) (syncytia per view): 20
